Here are results for 41 sequences from the nanobody polyreactivity screen of Harvey et al. (2022).

A short description of the data set: yeast display, Sf9 membrane polyspecificity reagent, FACS + sequencing; frameworks hold sequencing errors. Put shortly: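 Genes from sorted yeast were amplified by colony PCR, read by MiSeq 2 × 250 sequencing and filtered on CDR length. These cells carried a synthetic nanobody library in Saccharomyces cerevisiae BJ5465 and were sorted by FACS into low and high (top ~1%) gates on anti-HA and streptavidin fluorescence. Polyreactivity is labelled according to the gate of origin.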
“QVQLVESGGGLVQAGGSLRLSCAASGRTFPRNAMGWSRQAPGKERELVAAISSTGDSTYYADSVKGRFTISRDNAKNTVYLQMNSLKPEDTAVYYCHYPYDYWGKGTQVTVSS”: the “polyreactivity (PSR sort gate)” value is recorded as “low polyreactivity”.
Take “QVQLVESGGGLVQAGGSLRLICAASGIIFAWYVMGWSRQAPGKERELVAAITQSGGSTFYADSVKGRFTISRDNAKNTVYLQLNSLKPEDTAVYYCNTDYFFNVPEMDSWGQGTQVTVYS”: the “polyreactivity (PSR sort gate)” value is “low polyreactivity”.
On to “QVQLVESGGGLVQAGGSLRLSCAASGSTFQYYAMGWYRQAPGKERELVAAISSGGRTNYADSVKGRFTISRDNAKNTVYLQMNSLKPEDTAVYYCAARWCYTKGEFDYWGQGTQVTVSS”, for which the “polyreactivity (PSR sort gate)” value is recorded as “high polyreactivity”.
For “QVQLVESGGGLVQAGGSLRLSCAASGRIFLRNDMGWYRQAPGKVRELVAGISSDGSTYYADSVKGRFTISRDNAKNTVYLQMTSLKPEDTAVYYCNAEDTPGAGDGNWGQGTQVTVSS”, the “polyreactivity (PSR sort gate)” value is listed as “low polyreactivity”.
The entry for “QVQLVESGGGLVQAGGSLRLSCAASGRIFGFNALGWYRQAPGKEREFVAAMSGNGGSTYYADSVKGRFTISRDTAKNTVYLPMLSLNPEDTADYYSAASVHATYFSGARHWVKLYDWRQGTQVTVSS” is “high polyreactivity”; for “QVQLVESGGGIVQAGGSLRLSCAASGFTFWSYAMGWYRPAPGKERELVAAISRGGSTSYADSVKGRFTISRDNAKNTVYLQLNSLKPEDTAVYYCAVVRARAYVYHGFYWGQGTQVTVSS” it is “high polyreactivity”; for “QVQLVESGGGLVQAGGSLRLSCAASGRTFGYYAMGWYRPAPGKEREFVAAISFRTTSTYYADSVKGRFTISRDNAKNTVYLQLNSLKPEDTAVYYCNVVVKGAWDYYPYDYWGQGPQVTVSS” it is “high polyreactivity”.
The entry for “QVQLVESGGGLVQAGGSLRLSCAASGSTFPRNAMGWYRQAPGKERELVATITSSGGGTYYADSVKGRFTISRDNAKNTVYLQMNSLKPEDTAVYYCNAAGPAGDAFDYWGQGTQVTVSS” is “low polyreactivity”; for “QVQLVESGGGLVQAGGSLRLSCAASGTFAGNAMGCYRQSPGKERELVASITTGGRTYYADSVKGRFTISRDNAKNTVYLQMNSLKPEDTAVFYCSADLIRELEFDYWGQGTQVTVSS” it is “low polyreactivity”; for “QVQLVESGGGLVQAGGSLRLSCADSGRIFVRKAMGWYRQAPGKERELVAAISARGGRTNYADSVKGRFTISRDNAKNTVYLQMNSLKPEDTAVYYCAADGLRAAYLYDYWGQGTQVTVSS” it is “high polyreactivity”.
As for “QVQLVESGGGLVQAGGSLRISCAASGRIFYVYAMGWYRQAPGKERELVAAISTGSPTYYADSVNGRFTISRDNAKNTVYLQMNSLKPEDTAVYFCATGSIHGDFWSFRHQYYYWGQGTQVTVSS”, the entry is “low polyreactivity”; as for “QVQLVESGGGLVQAGGSLRLSCAASGIIFGKNAMGWYRQAPGKERELVAAISRRGGGTYYADSVKGRFTISRDNAKNTVYLQMNSLKPEDTAVYYCAVKVGYVRLLYHYYYWGQGTQVTVSS”, “high polyreactivity”.
For the sequence “QVQLVESGGGLVQAGGSLRLSCAASGSIFTWYAMGWYRQAPGKEREFVDSITGSGGSTYYADSVKGRFTISRDNAKNTVYLQMNSLKPEDTAVYYCAKGHVYSSYRYRLRSTAFGYWGQGTQVTVSS”, the “polyreactivity (PSR sort gate)” value was “high polyreactivity”.
The entry for “QDQLVESGGGLVQAGGSLRLTCAASGFIFYHYAMGWYRQAPGKERDLVAAINWSGGSTYYADSVKGRFTISRDNAKKTDYLQMNSLKPEDTAVYYCAAYSTAWYWPGKFDYWGQGTQVTVSS” is “high polyreactivity”; for “QVQLVQSCGGLVQAGGSLRLSCATSGFTFPLYAMGWYRQAPGKERELVAAISSGSSTYYADSVKGRFTISRDNAKNTVYLQMNSLKPEDTAVYYCAAQKRGSPGYRRDYWGQGTQVTVSS” it is “high polyreactivity”.
The entry for “QVQLVESGGGLVQAGGSLRLSCAASGFIFRLNAMGWYRQAPGKERELVAAISTYADSMKGRFTISRDNAKNTVYLQMNSLKPEDTAVYYCAKDYTDTYAYRTGFDYWGQGTQVTVSS” is “low polyreactivity”.
As for “QVQLVESGGGLVQAGGSLRLTCAASGNIFVGNDMGWYRQAPGKERELVAAISSGDTTSYADSVKGRFTISRDNAKNTVYLKMNSLKPEETAVYYCAVDRSLSPFAYDYWGQGTQVTVSS”, the entry is “low polyreactivity”; as for “QVQLVESGGGLVQAGGSLRLSCAASGRIFTNYAMGWYREAPGKERELVAAINYSGGNTYYADSVKGRFTISRDNAKNTVYLQMNSLIPEDTAVYYCNAPILPRYRRYDYWGQGTQVTVSS”, “low polyreactivity”; as for “QVQLVESGGGLVQAGGSLRLSCAASGRIFTRYVMGWYRPAPGKERELVAGINSGGRTNYADSVKGRFTISRDNAKNTVYLQMNSLKQVDTAVYYCAAGKGRPVGGRAYYYWGHGTQVTVSS”, “high polyreactivity”.
For the sequence “QVQLVESGGGLVQAGGSLRLSCAASGSTYVGYAMGWYRQAPRKERDLVADIDSIGGSTYYADTVKRRFTISRDKAKNTVYLQMNSLKPEDTAVYYCAARRFDTALVLYDYWGQCTQVTVSS”, the “polyreactivity (PSR sort gate)” value was “low polyreactivity”.
For “QVQLVESGGGLVQAGGSLRLSCAASGITIYKNAMGWYRQAPGKERELFAAITRGGSTYYADSVKGRFTISRDNAKNTVYLQMNCLKPEDTAVYYCNKVYHWQTPGFGYGYWGQGTQVTVST”, the “polyreactivity (PSR sort gate)” value was “high polyreactivity”.
For “QVQLGESGGGLVQAGGSLRLSCAASGRTFGYNAIGWYRQAPGKEMELVAVIRSGGSTYYADSVKGRFTISRDNAKNTVYLQMNSLKPEDTAVYYCNADVLPTWYSPELDYWGQGTQVTVSS”, the “polyreactivity (PSR sort gate)” value is on record as “low polyreactivity”.
“QDQHVESGGGLVQAGGSLRLSCAASGSIFVTNAMGWCRQARGKERELVAAISVSGGSTYYADSVKGRFTISRDNAKHTVYLQMTSLKPEDTAVYYCNTVRSPPGHDSWGQGTQVTVSS”: the “polyreactivity (PSR sort gate)” value is on record as “low polyreactivity”.
In the case of “QGQLVESGGGLVQAGGRLRLTCAASGSIFAGNAMGWYRQAPGKERELVAAIRWSTGSTYYADSVKGRFTISRDNAKNTVYLQLNSLKPEDTAVYYCAATDTTFYGIVRYEYWGQGTQVTVSS”, the “polyreactivity (PSR sort gate)” value is reported as “low polyreactivity”.
As for “QVQLVESGGGLVQAGGSLRLSCAASGITFYVHAMGWYRQAPGKERELVASITWSGGSTYYADSVKGRFTISRDNAKNTVYLQMNSLKPEDTAVYYCAHVLYRAYEYWGQGTQVTVSS”, the entry is “low polyreactivity”; as for “QVQLVESGGGLVQAGGSLRLSCAASGRIFAGYAMGWDRQAPGKERELVATISSGGSTYYADSVKGRFTISRDNAKNTVYLQMNSLKPEDTAVYYCAAEYGTRQYSSYYKLFNYWGQGTQVTVSS”, “low polyreactivity”; as for “QVQLVESGGGLVQAGGSLRLSCAASGRTFYVYAMGWYRQAPGKERELVASISWIGDDTYYADSVKGRFTISRDNAKNTVYLQMNSLKPEDTAVYYCAVLVLGDYGYEYWGQGTQVTVSS”, “high polyreactivity”.
The entry for “QVQLVESGGGLVQAGGSLRLSCAASGSTFSGKAMGWYRQAPGKERELVAAITSSGGSTYYADSVKGRFTISRDNAKNTVYLQMNSLKPEDTAVYYCAAKSRRTRRSYYWGQGTQVTVSS” is “high polyreactivity”; for “QVQLVESGGGLVQAGGSLRLTCAASGRTFTRYAMGWYRQAPGKERELVAAISGGGGSTYYADSVKGRFTISRDNAKNTVYLQMNSLKPEDTAVYYCNAAARGSSFDYWGQGTQVTVSS” it is “low polyreactivity”; for “QVQLVESGGGLVQAGGSLRLSCAASGSTFTLNAMGWYRQAPGKERELVADISWSSGRTYYADSVKGRFTISRDNAKNTVYFQMNSLKPEDTAVYYCATDDFWNVKFYAYYPEFDYWGQGTQVTVSS” it is “low polyreactivity”.
The entry for “QVQLVESGGGLVQAGGSLRLSCAASGFTFGSYAMGWYRQAPGKERELVAAITWSGGSTYYADSVKGRFTISRDNAKNTVYLQMNSLKPEDTAVYYCNAEIRYYGYDYWGQGTQVTVSS” is “high polyreactivity”.
With “QVQLVESGGGLVQAGGSLRLSCAASGSTFYVYAMGWYRQAPGKERELVAAITSGTSTYYADSVKGRFTISRDNAKNTVYLQMNSLKPEDTAVYYCAAYSYYYRFPYYYWGQGTQVTVSS”, the “polyreactivity (PSR sort gate)” value is reported as “high polyreactivity”.
The entry for “QVQLVESGGCLVQAGGSLRLSCAASGSILATNVMGWYRQSPGKESQFVAAISSGGSTNYADSVKGRFTISRDNAKYTVYLQMNSLKPEDTAVYYCATSSIWGSGRVRWVSYYYWGQGSQVTVSS” is “low polyreactivity”; for “QVQLVESGGGLVQAGGSLRLSCAASGSMLKSYAMGWYIQAPGKESELVAAITYRDGSTYYADSVKGRFTISRDNAKNTVYLQMNSLKPEDTAVYYCNARWARGRYAQYGGLDREYDYWGQGTQVTVSS” it is “high polyreactivity”; for “QVQLVESGGGLVQAGGSLRLICAASGSTFTTYAMGWYRQAPGKEREFVAGISWSGGSTRYADSVKGRFTISRDNAKNTVYLQMNSLKPEDTAVYYCAAGRKRDSKYYYWGQGTQVTVSS” it is “high polyreactivity”.
“QVQLVESGGGLVQAGGSLRLSCAASGLTFVYYAMGWYRQAPGKEMELVAAITSGGTTHYADSVKGRFTISRDNAKNTVYLQMNSLKPEDTAVYYCAATLGRWKRTYGYWGQGTQVTVSS”: the “polyreactivity (PSR sort gate)” value is “high polyreactivity”.
For the sequence “QVQLVESGGGLVQAGGSLRLSCATSGSIFVFNAMGWYRQAPGKERELVAAIDTSDDITYYADSVKGRFTISRDNAKNTVYLQMNSLKPEDTAVYYCNAETYGLVPYYIYHYEFDYWGQGTQVTVSS”, the “polyreactivity (PSR sort gate)” value is given as “high polyreactivity”.
In the case of “QVQLVESGGGLVQAGGSLRLSCAASGSTFPYYARVWYRQEPGKETELVAAISSSGGSTYYADSVKGRFTISRDNAKNTVFLQMNSLKPEDPAVYYCAARRKFPYRHDYWGQGTLVTVSS”, the “polyreactivity (PSR sort gate)” value is recorded as “high polyreactivity”.
For “QVQLVESGGGLVQAGGSLRLTCAASGFTFFYNAMGWYRQAPGKERELVAAISRGGGRTYYADSVKGRFTISRDNAKNTVYLQMNSLKPEDTAVYYCAKEYGGTRGRKLDYWGQGTQVTVSS”, the “polyreactivity (PSR sort gate)” value was “high polyreactivity”.
As for “QVQLVESGAGLVQAGGSLRLSCAASGSIFDYYAMGLYRQAPGKERELVAVITRGGSTYYADSVKGRFTISRDNAKNTDSLQMNSLKPEDTAVYYCNASRGYKSRYEYWGQGTQVTVSS”, the entry is “high polyreactivity”; as for “QVQLVESGGGLVQAGGSLRLSCAASGSIFVYNAMGWYRQAPGKEMELVASITWSGGRTYYADSVKGRFTISRDHAKNTVYLQMNSLKPEDTAVYYCNKRQYSRTFRYGYWGQGTQVTLSS”, “high polyreactivity”.
